From patent US20220411477A1 (MONASH UNIVERSITY, published 2022)
Residue numbers refer to the chain shown, from its start. Names may count otherwise.

T1: AMH-specific type II receptor, AMHR2 (UniProt Q16671 18-573, limits assumed)
T1 sequence (looked up): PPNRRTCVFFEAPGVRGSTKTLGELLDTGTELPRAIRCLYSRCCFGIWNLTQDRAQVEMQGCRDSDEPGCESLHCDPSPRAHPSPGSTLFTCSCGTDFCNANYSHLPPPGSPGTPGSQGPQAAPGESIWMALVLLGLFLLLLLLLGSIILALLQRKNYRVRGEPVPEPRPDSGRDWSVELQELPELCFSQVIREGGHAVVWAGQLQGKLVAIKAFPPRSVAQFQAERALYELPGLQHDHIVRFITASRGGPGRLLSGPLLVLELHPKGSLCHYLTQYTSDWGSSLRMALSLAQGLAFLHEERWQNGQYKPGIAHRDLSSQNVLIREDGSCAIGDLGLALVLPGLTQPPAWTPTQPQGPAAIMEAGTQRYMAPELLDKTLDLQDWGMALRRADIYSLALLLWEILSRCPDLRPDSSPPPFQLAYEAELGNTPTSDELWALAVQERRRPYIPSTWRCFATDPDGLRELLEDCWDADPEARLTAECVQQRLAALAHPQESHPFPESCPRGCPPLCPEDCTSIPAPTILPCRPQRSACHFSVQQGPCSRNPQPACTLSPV

B1: hAMH mutant A546M (ligand)
chain 1: HHHHHHPAVGTSGLIFREDLDWPPGSPQEPLCLVALGGDSNGSSSPLRVVGALSAYEQAFLGAVQRARWGPRDLATFGVCNTGDRQAALPSLRRLGAWLQDPGGQRLVVLHLEEVTWEPTPSLRFQEPPPGGAGPPELALLVLYPGPGPEVTVTRAGLPGAQSLCPSRDTRYLVLAVDRPAGAWRGSGLALTLQPRGEDSRLSTARLQALLFGDDHRCFTRMTPALLLLPRSEPAPLPAHGQLDTVPFPPPRPSAELEESPPSADPFLETLTRLVRALRVPPARASAPRLALDPDALAGFPQGLVNLSDPAALERLLDGEEPLLLLLRPTAATTGDPAPLHDPTSAPWATALARRVAAELQAAAAELRSLPGLPPATAPLLARLLALCPGGPGGLGDPLRALLLLKALQGLRVEWRGRDPRGPGISSRKKR
chain 2: SVSSSAGATAADGPCALRELSVDLRAERSVLIPETYQANNCQGVCGWPQSDRNPRYGNHVVLLLKMQARGAALARPPCCVPTAYAGKLLISLSEERISMHHVPNMVATECGCR
B2: hAMH+SCUT+RSA H548K mutant (ligand)
chain 1: B1 chain 1
chain 2: B1 chain 2 with M99A, H101K
B3: hAMH+SCUT+RSA G533A mutant (ligand)
chain 1: B1 chain 1
chain 2: B1 chain 2 with G86A, M99A

Target: T1, AMH-specific type II receptor, AMHR2
Assay: cell-based or functional assay

Binder | Maximal response relative to wild-type (%) | AMH activity relative to wild type (%) | EC50 in COV434 BRE-Luc assay [ng/mL] | Potency relative to ‘wild-type’ [fold more potent]
B1 | ~5 |  |  | 
B2 |  | 100 | ~6 | 
B3 |  | 250 | ~2.8 | ~2
